Laboratory results published in patent US20250257336A1, “ISOLATED OR ENGINEERED POLYPEPTIDES, MICROORGANISMS AS WELL AS METHOD FOR SYNTHESIZING POLYPHENOLIC PHYTOCHEMICALS PHOSPHATE DERIVATIVE USING THE POLYPEPTIDES OR MICROORGANISMS” (National Taiwan University, priority 2021, published 2025).
Where a chain is given by its changes, count along the chain named. Names may count otherwise.

B1: K27A: site-directed mutant of the PPS of interest (SEQ ID NO: 13), Lys27 substituted with Ala (protein, listed as Bacillus subtilis)
chain: MKKRGVSNMYSVLFRQAEESSQLAGAAGMNLIKLTKHGLPVPDGFIIQTNALARFMEDNQLQETSENVESGIISGTFSDELKDELTSSFYKLRESYRSVAVRSSSASEDLEGASFAGQYETYLNIKTEEEFLAKVKECWASFFSGRVSSYKKKMNNQIAEPLMGIVVQGLIDSEMSGVIFSRNPVTHDDRELLISASYGLGEAVVSGSVTPDTFIVNKSSFEIQKEIGAKEIYMESAAEGIAEKETSEDMRSRFCLTDEQVIELAEITKKTEDLYGYPVDIEFGIADHQIYLLQARPITTIDQDKKAAEEKRSFMITDTDMNDFWLNMESNIEGPVSPLFSSFIVPALEYGLKKSMQKFPIGVVVDEVKLYRGHIYSKNQGGQQPPSEDCGKELFPILSEHMYDIINHTYLPFYRTLDQLAQTEHTAESALDAFQKLKAFYLTAYEEHFNIVFPQILLTNKLQAMYQDIQGESENAHFYEMLTGKMNKSLETDRCLWLFSMEVQENPNLLTIFENNKPEQLQEKLEQTDEGRHFLKNVHEFLQEYGWRSVKSHDLIEQIWVENPYFALANIQNYVRNGYHFDNEFQKTKEKREKLYNEFLENIEDPGLRTEFDRYYQWTLNSANIKDDHHFYIDAMLDAKARIFLLKIGELLAENGVIQDREDLWFLYDDEVEQALLHPVSLQEKAEKRRQIFHEYELAQAPAYLGTPTKEQLKAAEEIVGAVIEDEKNTENHIFGIAASSGIATGPVKIIRDANEFSQFAPGDVLVCKMTTPLWTSLFQDAKAIITDTGGILSHAAIIAREYGIPAVLGTRTATERLRDGDIITVDGSSGKITVVSRS
B2: H629A: site-directed mutant of the PPS of interest, His629 substituted with Ala (protein)
chain: B1 chain with A27K, H629A
B3: D627A: site-directed mutant of the PPS of interest, Asp627 substituted with Ala (protein)
chain: B1 chain with A27K, D627A
B4: H795A: site-directed mutant of the PPS of interest, His795 substituted with Ala (protein)
chain: B1 chain with A27K, H795A
B5: E329A: site-directed mutant of the PPS of interest, Glu329 substituted with Ala (protein)
chain: B1 chain with A27K, E329A
B6: H630A: site-directed mutant of the PPS of interest, His630 substituted with Ala (protein)
chain: B1 chain with A27K, H630A
B7: K378A: site-directed mutant of the PPS of interest, Lys378 substituted with Ala (protein)
chain: B1 chain with A27K, K378A

Assays:
[1] = D7P vs daidzein, G7P vs genistein; produced with Bacillus subtilis BCRC 80517; cited from earlier work
[2] = enzymatic activity of the PPS of interest and its protein mutant strains, genistein as substrate (G7P formation, HPLC); assay type: biochemical; settings: Mg2+/ATP, 40° C., 10 minutes, pH 7.8, FIG. 30
Protocol: After vibration-based mixing and centrifugation (13,000 rpm, 4° C., 5 minutes), the resulting supernatant was collected, diluted, and then analyzed by HPLC. The activity unit was defined as the amount of enzyme required to yield 1 nmol of product per unit time.
Once an enzyme was prepared, its protein concentration was diluted to 0.1 mg/mL. The enzyme and the enzyme reaction liquid were mixed at a ratio of 1:1 (v/v) and were allowed to react at 40° C. for 10 minutes, at the end of which methanol was added to dilute the protein tenfold and thereby terminate the reaction. The changes in concentration of genistein (GEN) and G7P (a product of GEN phosphorylation) were analyzed. The catalytic activity of the PPS of interest in the present invention and its mutant strains were subsequently calculated and compared, as shown in FIG. 30. […] The activity test results of other protein mutant strains show no total loss of activity but a trend of decrease in activity. […] However, while the aforesaid important catalytic sites in the active domain for stabilizing the phosphate group were inferred with relatively great certainty, the amino acids in Arm1 either had relatively poor prediction results or had important catalytic sites composed of non-polar amino acids (which when substituted with Ala produce little change in property) such that the combined use of site-directed mutagenesis and enzymatic activity determination lacked accuracy.

Row | Molecule | water solubility relative to daidzein and genistein, respectively [1] | catalytic activity (relative specific activity) compared with the PPS of interest [2]
1 | O=c1c(-c2ccc(O)cc2)coc2cc(OP(=O)(O)O)ccc12 [D7P, daidzein 7-O-phosphate] | a hundred thousand times | –
2 | O=c1c(-c2ccc(O)cc2)coc2cc(OP(=O)(O)O)cc(O)c12 [G7P, genistein 7-O-phosphate] | a hundred thousand times | –
3 | B1 | – | lost its activity
4 | B2 | – | significant decrease in protein activity
5 | B3 | – | significant decrease in protein activity
6 | B4 | – | total loss of PPS activity
7 | B5 | – | relatively significant decrease in activity
8 | B6 | – | significant decrease in protein activity
9 | B7 | – | relatively significant decrease in activity
